Changes are numbered by the printed parent chain.
T1: murine CDH3 on cells (mouse, UniProt P10287 100-822)
T1 construct: negative control; also called mouse CDH3
T1 sequence: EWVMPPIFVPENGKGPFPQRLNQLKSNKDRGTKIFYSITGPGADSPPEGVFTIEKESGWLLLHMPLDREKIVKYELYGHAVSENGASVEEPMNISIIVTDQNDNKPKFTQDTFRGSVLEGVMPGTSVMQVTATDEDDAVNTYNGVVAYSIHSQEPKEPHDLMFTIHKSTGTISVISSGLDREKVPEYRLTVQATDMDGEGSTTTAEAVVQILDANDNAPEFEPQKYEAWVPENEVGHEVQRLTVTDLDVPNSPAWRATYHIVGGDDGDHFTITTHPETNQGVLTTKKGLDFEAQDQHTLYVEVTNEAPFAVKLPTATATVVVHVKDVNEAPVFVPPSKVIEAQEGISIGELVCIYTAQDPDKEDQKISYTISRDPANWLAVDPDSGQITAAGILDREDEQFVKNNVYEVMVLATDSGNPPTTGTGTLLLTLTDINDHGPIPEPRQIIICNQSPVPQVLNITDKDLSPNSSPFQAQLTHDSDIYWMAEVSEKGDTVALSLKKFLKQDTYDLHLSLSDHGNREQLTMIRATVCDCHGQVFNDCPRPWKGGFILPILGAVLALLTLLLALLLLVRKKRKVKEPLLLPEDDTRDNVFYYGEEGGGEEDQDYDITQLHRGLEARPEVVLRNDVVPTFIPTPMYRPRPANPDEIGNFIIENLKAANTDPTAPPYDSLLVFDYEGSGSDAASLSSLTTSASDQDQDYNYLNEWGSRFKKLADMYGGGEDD

T2: Hu CDH3 Dom1B mu (aa 144-179), human/mouse chimeric CDH3 on CHO cells (chimeric hu/mu, UniProt P22223 108-681 (human entry))
T2 chain: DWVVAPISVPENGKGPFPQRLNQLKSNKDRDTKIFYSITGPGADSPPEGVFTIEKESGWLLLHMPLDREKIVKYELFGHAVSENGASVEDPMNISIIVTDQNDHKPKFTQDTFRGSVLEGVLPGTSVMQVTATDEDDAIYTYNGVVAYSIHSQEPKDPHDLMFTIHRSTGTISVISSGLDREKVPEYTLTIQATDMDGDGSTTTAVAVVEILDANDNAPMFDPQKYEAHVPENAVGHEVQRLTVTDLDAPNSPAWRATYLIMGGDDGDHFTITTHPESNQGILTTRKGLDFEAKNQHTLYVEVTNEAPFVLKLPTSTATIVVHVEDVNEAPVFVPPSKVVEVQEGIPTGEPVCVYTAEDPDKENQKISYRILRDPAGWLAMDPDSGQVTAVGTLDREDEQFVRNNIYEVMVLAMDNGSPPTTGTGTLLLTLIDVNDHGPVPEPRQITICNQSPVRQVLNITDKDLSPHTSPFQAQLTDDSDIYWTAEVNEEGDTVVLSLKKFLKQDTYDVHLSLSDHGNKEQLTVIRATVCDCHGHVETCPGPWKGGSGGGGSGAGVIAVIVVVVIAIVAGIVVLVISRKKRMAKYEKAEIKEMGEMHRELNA

T3: Hu CDH3 Dom1 mu (aa 108-215), human/mouse chimeric CDH3 on CHO cells (chimeric hu/mu)
T3 chain: T2 chain with D1E, V4M, A5P, S8F, D31G, F77Y, D90E, H104N

B1: CDH3-10 scFv (scFv)
scFv: EVQLVEESGGGLVKPGGSLKLSCAASGFTFSSYAMSWVRQTPDKRLEWVATISSGGHYTYYPDSVKGRFTISRDNAKNTLYLQMSSLKSEDTAMYYCASYYYGIPFGYWGQGTTVTVSSGGGGSGGGGSGGGGSELVMTQSPSSLSASLGEGVSLTCRASQDIGINLIWLRQEPDGTIKRLIYDTSSLDSGVPKRFSGSRSGSDYSLTISSLESEDFVHYYCLQYGSSPLTFGAGTKLEIK
B2: CDH3-8 (scFv)
scFv: EVQLVEQSGAEVVKPGASVKITCKASGYAFSSYWMNWVRQRPGKGLEWIGHIYPGDGDTNYNGKFKGKVTLTADKSSNTAYMQLSDLTPEDSAVYFCARDRGSFGAWFAYWGQGTTVTVSSGGGGSGGGGSGGGGSELVMTQTPSSLSASLGDRVTISCRASQDISNYLNWYQQKPDGTVKLLIYYTSRLHSGVPSRFSGSGSGTDYSLTISNLEQEDIATYFCQQGNRNPPTFGGGTKLEIK
notes: Used as crude periplasmic extract and detected through a FLAG tag; also called CDH3-8 scFv
B3: CDH3-9 (scFv)
scFv: EVQLVEESGGDLVKPGGSLKLSCAASGFTFSTYGMSWVRQTPDKRLEWVATISSGGHYSYYPDSVKGRFTISRDNAKNTLYLQMSSLKSEDTAMYYCASYYYGSPFAYWGQGTTVTVSSGGGGSGGGGSGGGGSELQMTQSPSSLSASLGERVSLTCRASQDIGSSLNWLQQKPDGTIKRLIYDTSSLDSGVPKRFSGSRSGSDYSLTISSLESEDFGDYYCVQYGSSPLTFGAGTKLEIK
notes: Used as crude periplasmic extract and detected through a FLAG tag; also called CDH3-9 scFv

Legend:
[1] = target: T4, human CDH3 (P-cadherin) on cells (human, UniProt P22223 108-829); experiment: flow cytometry, transfected CHO cells; crude undiluted periplasmic scFv extract; anti-FLAG M2 + anti-mouse IgG Fcγ-PE; control PBS/2% FCS
T4 construct: The entry includes signal peptide and pro-peptide; extracellular domain D1 starts at aa 108; also called hu CDH3; hu CDH-3
Procedure: (§1) Cells transfected with human or murine CDH3, or with the chimeric human/mouse CDH3 molecules (see Example 1) were stained with crude, undiluted periplasmic extract containing scFv binding to human/macaque CDH3. […] As negative control, cells were incubated with PBS/2% FCS instead of the periplasmic extract. The samples were measured by flow cytometry.

[2] = target: T1, murine CDH3 on cells; experiment: flow cytometry, transfected CHO cells; crude periplasmic scFv extract; anti-FLAG M2 + anti-mouse IgG Fcγ-PE
Procedure: as §1

[3] = target: T2, Hu CDH3 Dom1B mu (aa 144-179), …; experiment: as above
Procedure: as §1

[4] = target: T3, Hu CDH3 Dom1 mu (aa 108-215), …; experiment: as above
Procedure: as §1

| Binder | binding result [1] | binding result [2] | binding result [3] | binding result [4] |
| --- | --- | --- | --- | --- |
| B1 | binds | no binding | no binding | no binding |
| B2 | binds | no binding | no binding | no binding |
| B3 | binds | no binding | no binding | no binding |

From patent US20250092133A1 (Amgen, published 2025)
